% of labeled TF2 shifted to a high molecular weight species and fold avidity relative to TF1 data for 1 substance are collected here from patent EP2674440A2.

One experiment concerns the target CEA (UniProt P06731). Briefly: SE-HPLC of 125I-TF2 mixed with a 20-fold molar excess of CEA.
The target of experiment [1] is fusion protein containing the A3B3 domain of CEA (UniProt P06731). Briefly: competitive ELISA against HRP-conjugated hMN-14 IgG (1 nM). (An ELISA detects its analyte on a solid surface through an enzyme-linked reagent.)

For the substance TF2 (bispecific antibody), the % of labeled TF2 shifted to a high molecular weight species with CEA worked out at 95%. Also, the fold avidity relative to TF1 in experiment [1] stood at 2 fold.
